B1: 1-30: anti-FAM19A5 antibody, de-immunized variant of 3-2; VH SEQ ID NO: 235, VL SEQ ID NO: 240 (antibody, V domains shown)
VH: AVTLDESGGGLQTPGGALRLSCKASGFDFESFNMFWVRQAPGKGLEYVSQISSSEEDENYAPAVKGRATISRDNGQSTLYLQMNSLRAEDTGTYYCAKSSYDCPYGHCSSGVDSAGEIDAWGHGTEVIVSS
VL: ALTQPSSVSANPGETVKITCSGGGSEEEQYYYGWYQQKPGSAPVTLIYQDEERPSDIPSRFSGSTSGSTATLTITGVQAGDEADYYCGSWDSEDEDHFGAGTTLTVL
modifications: Low-PI VH, 1-30 VH, 1-17 VH, 1-32 VH, 4-11 VH, 6-10 VH; 1-30 VL
B2: 2-13: anti-FAM19A5 antibody; VH SEQ ID NO: 35, VL SEQ ID NO: 39 (antibody, V domains shown)
VH: AVTLDESGGGLQTPGGALSLVCKASGFTFSSHGMFWVRQTPGKGLEYVAEITNDGSGTNYGSAVKGRATISRDNGQSTVRLQLNNLRAEDTGTYFCARSTYECPGGFSCWGDTGQIDAWGHGTEVIVSS
VL: ALTQPSSVSANPGETVKITCSGGSYSYGWFQQKSPGSALVTVIYWDDERPSDIPSRFSGALSGSTNTLTITGVQADDEAVYFCGTEDISGTAGVFGAGTTLTVL
modifications: 2-13 VH; 2-13 VL

Tests used:
[1] = tested on: primary mouse spiral ganglion neurons; test: Promotion of neurite outgrowth; assay type: cell-based; conditions: neurons isolated at postnatal day 4; neurofilament staining
Description: Sprial ganglion neuron were cultured in culture media consisting of high-glucose (4.5 mg/mL) DMEM, 0.1 mg/ml penicillin, 0.1 mg/mL streptomycin, N2 supplement, and 10 µg/mL insulin and was designated here as “5K” because in this media, [K+]=5.4 mM. A depolarizing media, designated as “30K,” in which Na was replaced with equimolar K to raise [K] to 30 mM while maintaining osmolarity was also used.
Dissociated spiral ganglion cell cultures were prepared from postnatal day 4-5 (P4-5) cochleae and maintained using a procedure modified from the methods described by Bok et al., J Neurosci 23 (3): 777-87 (2003), which is incorporated herein by reference in its entirety. The cochleae were aseptically dissected from the temporal bone and submerged in ice-cold HBSS (Gibco). Subsequent steps involved the removal of the bony cochlear capsule and the spiral ligament. The organ of Corti, surrounding connective tissue and modiolar bone was removed while preserving the spiral ganglion neurons within the modiolus. […]
Neurite outgrowth was quantified by measuring the total length of neurites per neuron. Neurons were stained with NF200 at either 2 or 3 DIV, and neurite lengths were measured using the Fiji (Image J). Individual neurons were manually selected, and neurite lengths were determined using the Simple Neurite Tracer plugin. […]

FAM19A5 antigen = FAM19A5 antigen (Homo sapiens, UniProt Q7Z5A7); test: Cross-competition two-site sandwich ELISA; assay type: binding; conditions: antibodies 1-65, P2-A03, P2-F11, 13B4, 2-13, 3-2; cross-competition = S/N ratio lower than 2
Description: The term “S/N” refers to the signal to noise ratio, which is measured as follows: [O.D. of 10 ng/ml antigen]/[O.D. of 0 ng/ml antigen].
Next, a two-site sandwich ELISA was used as described below to assess whether the different anti-FAM19A5 antibodies with similar binding epitopes cross-compete with each other.
First, the indicated anti-FAM19A5 antibodies were diluted in 1×PBS to a concentration of 10 μg/mL. The diluted anti-FAM19A5 antibodies (10 μg/mL in 1×PBS) (“capture antibody”) were used to coat the 96-well plates (100 μL/well) at 37° C. for approximately 1 hour. After the incubation, the plates were washed with the washing buffer (0.01% Tween-20/PBS; also called 0.01% PBST) for a total of five washes, blocked with the blocking solution (5% BSA/PBS; also called 5% PBSA) (250 μL/well) for one hour at 37° C., and then washed again. Next, 100 μg/mL of the FAM19A5 antigen (diluted in PBS containing 5% BSA, 0.01% Tween-20; also called 5% PBSAT; “diluent buffer) was added to each of the wells, and the 96-well plates were incubated for 2 hours at 37° C. After the incubations, the plates were washed using 0.01% PBST for a total of five washes. After the final wash, the indicated biotinylated anti-FAM19A5 antibodies (“detection antibody”) (diluted to lug/mL in 5% PBSAT) were added to the relevant wells (100 μL volume) and the plates were incubated for an additional 1 hour at 37° C. Afterwards, the plates were washed again with 0.01% PBST (five total washes). Next, 100 μL of the diluted (1/2000 in 5% PBSAT) Streptavidin-HRP (1 mg/mL, Sigma, USA) was added to the wells, and the plates were incubated for 30 minutes at room temperature. The plates were then washed and treated with 100 μL of the TMB substrate ([…], Thermo Fisher Scientific). After an additional 30-minute incubation at room temperature, the color change reaction was induced by the addition of the TMB substrate. This reaction was stopped using 50 μL of sulfuric acid (2N H2SO4), and the extent of color change was detected via absorption at 450 nm with reference wavelength at 620 nm using a 96 well microplate reader (Molecular Device).

FAM19A5 antigen, sequence (Q7Z5A7 44-132): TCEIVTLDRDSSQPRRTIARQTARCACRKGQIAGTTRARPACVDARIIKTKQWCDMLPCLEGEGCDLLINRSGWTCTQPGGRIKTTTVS

| Molecule | neurite length vs control human IgG antibody [1] | cross-competition with the other anti-FAM19A5 antibodies (FAM19A5 antigen) |
| --- | --- | --- |
| B1 | promoting neurite outgrowth | – |
| B2 | promoting neurite outgrowth | did not cross-compete |

Reference: patent US20260265360A1, “USE OF ANTI-FAM19A5 ANTAGONISTS FOR TREATING HEARING DISORDERS” (NEURACLE SCIENCE CO., LTD., priority 2023, published 2026)
